Target: full-length MukB (wild type) (E. coli) (UniProt P22523)
Experiment: fluorescence correlation spectroscopy (FCS); competition: MatP-Cy3B fixed at 1 nM, MukB at 400 nM; ParC variants at 10-fold, unlabeled MatP at 50-fold, DNA at 2.5-fold molar excess

Sequence of MBP-ParC^CTD (ParC C-terminal domain with N-terminal MBP fusion) (domain or fragment) (P0AFI2 whole entry, the tested form may be a part): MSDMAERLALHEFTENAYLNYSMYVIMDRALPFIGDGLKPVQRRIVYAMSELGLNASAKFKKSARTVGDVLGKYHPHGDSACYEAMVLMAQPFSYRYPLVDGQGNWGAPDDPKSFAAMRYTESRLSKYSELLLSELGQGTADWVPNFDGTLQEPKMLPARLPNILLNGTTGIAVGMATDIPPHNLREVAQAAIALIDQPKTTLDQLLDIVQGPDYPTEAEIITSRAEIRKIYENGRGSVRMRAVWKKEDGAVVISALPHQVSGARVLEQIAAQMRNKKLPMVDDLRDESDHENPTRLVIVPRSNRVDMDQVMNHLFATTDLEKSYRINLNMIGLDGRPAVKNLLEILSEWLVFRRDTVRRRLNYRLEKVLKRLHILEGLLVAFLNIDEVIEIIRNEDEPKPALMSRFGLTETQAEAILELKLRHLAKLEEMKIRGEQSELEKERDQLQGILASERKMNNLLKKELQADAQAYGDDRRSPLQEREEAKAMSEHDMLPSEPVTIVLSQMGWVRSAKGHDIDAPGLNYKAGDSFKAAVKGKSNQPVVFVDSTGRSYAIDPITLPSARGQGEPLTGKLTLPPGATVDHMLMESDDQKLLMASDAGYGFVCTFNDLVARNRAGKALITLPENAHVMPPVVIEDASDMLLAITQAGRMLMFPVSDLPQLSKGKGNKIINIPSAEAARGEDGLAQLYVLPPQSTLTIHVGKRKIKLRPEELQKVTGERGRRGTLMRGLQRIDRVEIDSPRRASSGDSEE
Sequence of full-length MukB (wild type) (E. coli) (P22523 whole entry): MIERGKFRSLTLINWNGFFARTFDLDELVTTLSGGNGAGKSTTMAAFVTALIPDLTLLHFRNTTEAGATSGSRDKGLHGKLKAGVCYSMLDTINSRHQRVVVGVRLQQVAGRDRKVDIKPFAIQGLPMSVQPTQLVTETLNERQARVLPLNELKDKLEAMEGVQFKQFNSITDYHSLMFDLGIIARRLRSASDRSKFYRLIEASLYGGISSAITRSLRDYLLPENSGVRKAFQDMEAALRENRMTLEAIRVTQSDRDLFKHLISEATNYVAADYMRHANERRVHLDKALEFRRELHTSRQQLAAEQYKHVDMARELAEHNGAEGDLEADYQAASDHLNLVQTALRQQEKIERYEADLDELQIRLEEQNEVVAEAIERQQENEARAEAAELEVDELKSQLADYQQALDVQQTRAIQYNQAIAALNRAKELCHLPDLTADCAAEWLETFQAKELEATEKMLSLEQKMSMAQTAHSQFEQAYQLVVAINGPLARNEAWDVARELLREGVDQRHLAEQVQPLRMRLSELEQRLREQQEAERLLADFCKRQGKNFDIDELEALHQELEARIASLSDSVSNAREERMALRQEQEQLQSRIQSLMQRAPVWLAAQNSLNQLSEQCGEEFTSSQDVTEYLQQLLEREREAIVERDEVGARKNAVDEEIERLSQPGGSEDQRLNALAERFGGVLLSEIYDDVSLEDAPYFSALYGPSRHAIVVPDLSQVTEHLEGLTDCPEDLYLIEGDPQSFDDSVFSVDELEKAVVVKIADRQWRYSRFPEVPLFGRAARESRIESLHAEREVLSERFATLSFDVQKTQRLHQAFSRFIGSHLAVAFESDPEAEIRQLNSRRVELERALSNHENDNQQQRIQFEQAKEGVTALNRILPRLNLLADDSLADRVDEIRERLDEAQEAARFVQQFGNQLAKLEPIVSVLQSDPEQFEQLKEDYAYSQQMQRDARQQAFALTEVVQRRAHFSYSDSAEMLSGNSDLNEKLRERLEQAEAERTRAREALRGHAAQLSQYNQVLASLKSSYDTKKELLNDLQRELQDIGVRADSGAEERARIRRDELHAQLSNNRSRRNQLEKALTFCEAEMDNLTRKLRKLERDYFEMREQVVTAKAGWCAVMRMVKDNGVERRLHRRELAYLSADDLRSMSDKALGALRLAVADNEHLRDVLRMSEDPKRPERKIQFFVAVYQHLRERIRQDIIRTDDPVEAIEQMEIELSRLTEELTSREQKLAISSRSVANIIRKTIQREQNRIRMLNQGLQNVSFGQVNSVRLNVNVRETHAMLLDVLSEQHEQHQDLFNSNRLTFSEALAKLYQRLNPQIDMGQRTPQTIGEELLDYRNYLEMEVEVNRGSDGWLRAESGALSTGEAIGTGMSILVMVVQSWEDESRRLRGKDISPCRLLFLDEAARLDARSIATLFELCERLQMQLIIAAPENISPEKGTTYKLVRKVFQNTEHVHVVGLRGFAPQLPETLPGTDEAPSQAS

Substance: MBP-ParC^CTD (ParC C-terminal domain with N-terminal MBP fusion) (domain or fragment)
- fold decrease in MatP-Cy3B binding to MukB at 10-fold excess of competitor: 3 fold

From paper PMC8523169
